Results on ten molecules are retold here after patent US11795460B2, “Compositions and methods for TTR gene editing and treating ATTR amyloidosis” (Intellia Therapeutics, Inc., priority 2017, dated 2023).

Strand notation (5' to 3'): a small letter for the sugar, then the base; units joined by * are phosphorothioate-linked, units joined directly phosphodiester-linked; [ ] holds rarer units or linkages, { } end groups; capitals alone tell only the bases. m = 2'-O-methyl; r = 2'-OH (RNA)

In one data set the test system is TTR mRNA. Description: TTR mRNA knockdown in primary human hepatocytes by quantitative PCR (Tables 34, 35). The data set is classed as cell-based. The conditions noted are these: TTR mRNA in PHH, 96 hours after treatment, vs untreated control. As for the experimental part:
In one experiment, PHH were cultured and treated with LNPs comprising Cas9 mRNA (SEQ ID NO:1) and a gRNA of interest (See FIG. 29, Table 34), as described in Example 4. The LNPs were prepared using the cross-flow procedure described above and purified and concentrated using PD-10 columns and Amicon centrifugal filter units, respectively. The LNPs were formulated with an N:P ratio of 6.0 and contained Lipid A, Cholesterol, DSPC, and PEG2k-DMG in a 50:38:9:2 molar ratio, respectively. The LNPs comprised a gRNA:mRNA ratio of 1:2, and the cells were treated at a dose of 300 ng (with respect to the amount of mRNA cargo delivered).
(§1) Ninety-six (96) hours following LNP treatment (with biological triplicates for each condition), mRNA was purified from PHH cells using the Dynabeads mRNA DIRECT Kit (ThermoFisher Scientific) according to the manufacturer's protocol. Reverse Transcription (RT) was performed with Maxima reverse transcriptase (ThermoFisher Scientific) and a poly-dT primer. The resulting cDNA was purified with Ampure XP Beads (Agencourt). For Quantitative PCR, 2% of the purified cDNA was amplified with Taqman Fast Advanced Mastermix and 3 Taqman probe sets, TTR (Assay ID: Hs00174914_m1), GAPDH (Assay ID: Hs02786624_g1), and PPIB (Assay ID: Hs00168719_m1). The assays were run on the QuantStudio 7 Flex Real Time PCR System according to the manufacturer's instructions (Life Technologies). Relative expression of TTR mRNA was calculated by normalizing to the endogenous controls (GAPDH and PPIB) individually, and then averaged.
In a separate experiment, TTR mRNA knockdown was evaluated following treatment with LNPs comprising G000480, G000486, and G000502. The LNPs were formulated and PHH were cultured and treated with the LNPs, each as described in the experiment above in this Example with the exception that the cells were treated at a dose of 100 ng (with respect to the amount of mRNA cargo delivered).
as §1, with “(single treatment” for “(with biological triplicates”, “the High Capacity cDNA Reverse Transcription Kit” for “Maxima reverse transcriptase”, “according to the manufacturer's instructions.” for “and a poly-dT primer. The resulting cDNA was purified with Ampure XP Beads (Agencourt).”, “the” for “the purified”

For a further data set, the system named is TTR. Description: TTR editing in primary human hepatocytes transfected with Spy Cas9 protein and sgRNAs (Table 12). The data set is classed as cell-based. The conditions noted are these: primary human hepatocytes transfected with Spy Cas9 protein (RNP) and sgRNAs. As for the experimental part:
Primary liver hepatocytes. Primary human liver hepatocytes (PHH) and primary cynomolgus liver hepatocytes (PCH) (Gibco) were cultured per the manufacturer's protocol (Invitrogen, protocol 11.28.2012). In brief, the cells were thawed and resuspended in hepatocyte thawing medium with supplements (Gibco, Cat. CM7000) followed by centrifugation at 100 g for 10 minutes for human and 80 g for 4 minutes for cyno. The supernatant was discarded and the pelleted cells resuspended in hepatocyte plating medium plus supplement pack (Invitrogen, Cat. A1217601 and CM3000). Cells were counted and plated on Bio-coat collagen I coated 96-well plates (ThermoFisher, Cat. 877272) at a density of 33,000 cells/well for human or 60,000 cells/well for cyno (or 65,000 cells/well when assaying effects on TTR protein, described further below). Plated cells were allowed to settle and adhere for 6 or 24 hours in a tissue culture incubator at 37° C. and 5% CO2 atmosphere. After incubation cells were checked for monolayer formation and media was replaced with hepatocyte culture medium with serum-free supplement pack (Invitrogen, Cat. A1217601 and CM4000).
[…] formation was performed prior to electroporation or transfection of Spy Cas9 protein loaded with guide RNAs (RNPs) onto cells. For dual guide (dgRNAs), individual crRNA and trRNA was pre-annealed by mixing equivalent amounts of reagent and incubating at 95° C. for 2 min and cooling to room temperature. Single guide (sgRNAs) were boiled at 95° C. for 2 min and cooling to room temperature. The boiled dgRNA or sgRNA was incubated with Spy Cas9 protein in Optimem for 10 minutes at room temperature to form a ribonucleoprotein (RNP) complex.
For RNP lipoplex transfections, cells were transfected with Lipofectamine RNAiMAX (ThermoFisher, Cat. 13778150) per the manufacturer's protocol. Cells were transfected with an RNP containing Spy Cas9 (10 nM), individual guide (10 nM), tracer RNA (10 nM), Lipofectamine RNAiMAX (1.0 μL/well) and OptiMem. RNP formation was performed as described above.
Transfected cells were harvested post-transfection at 24, 48, or 72 hours. The genomic DNA was extracted from each well of a 96-well plate using 50 μL/well BuccalAmp DNA Extraction solution (Epicentre, Cat. QE09050) per manufacturer's protocol. All DNA samples were subjected to PCR and subsequent NGS analyses, as described herein.
To quantitatively determine the efficiency of editing at the target location in the genome, sequencing was utilized to identify the presence of insertions and deletions introduced by gene editing.
Primers were designed around the target site within the gene of interest (e.g. TTR), and the genomic area of interest was amplified.
Additional PCR was performed per the manufacturer's protocols (Illumina) to add chemistry for sequencing. The amplicons were sequenced on an Illumina MiSeq instrument. The reads were aligned to a reference genome (e.g., the human reference genome (hg38), the cynomologus reference genome (mf5), the rat reference genome (rn6), or the mouse reference genome (mm10)) after eliminating those having low quality scores. The resulting files containing the reads were mapped to the reference genome (BAM files), where reads that overlapped the target region of interest were selected and the number of wild type reads versus the number of reads which contain an insertion, substitution, or deletion was calculated.
The editing percentage (e.g., the “editing efficiency” or “percent editing” or “indel frequency”) is defined as the total number of sequence reads with insertions/deletions (“indels”) or substitutions over the total number of sequence reads, including wild type.
Guides in modified sgRNA format targeting human and/or cyno TTR were delivered to primary human hepatocytes and primary cyno hepatocytes as described in Example 1. […]

The mark [1] stands for this setting: LNP dose 300 ng mRNA cargo, gRNA:mRNA 1:2, biological triplicates.

B1: G000570: TTR sgRNA modified sequence, Human, SEQ ID No. 111; guide sequence of CR003347 (nucleic acid)
guide: mC*mA*mU*rUrGrArUrGrGrCrArGrGrArCrUrGrCrCrUrGrUrUrUrUrArGrAmGmCmUmAmGmAmAmAmUmAmGmCrArArGrUrUrArArArArUrArArGrGrCrUrArGrUrCrCrGrUrUrArUrCrAmAmCmUmUmGmAmAmAmAmAmGmUmGmGmCmAmCmCmGmAmGmUmCmGmGmUmGmCmU*mU*mU*mU
For the molecule B1, the “Avg % Knockdown” value with TTR mRNA (setting [1]) was 93.38%.

B2: G000480: TTR sgRNA modified sequence, Human, SEQ ID No. 87; guide sequence of CR003353 (nucleic acid)
guide: mA*mA*mA*rGrGrCrUrGrCrUrGrArUrGrArCrArCrCrUrGrUrUrUrUrArGrAmGmCmUmAmGmAmAmAmUmAmGmCrArArGrUrUrArArArArUrArArGrGrCrUrArGrUrCrCrGrUrUrArUrCrAmAmCmUmUmGmAmAmAmAmAmGmUmGmGmCmAmCmCmGmAmGmUmCmGmGmUmGmCmU*mU*mU*mU
Regarding B2, the “Avg % Knockdown” value in the data set with TTR mRNA (LNP dose 100 ng mRNA cargo, separate experiment) worked out at 95.61%. Besides, in the data set on TTR mRNA (setting [1]), the “Avg % Knockdown” value was determined as 95.19%. Also, in the data set on TTR, the “Avg % Deletion” value amounted to 4.70%, the “Avg % Edit” value was found to be 81.80% and the “Avg % Insert” value is given as 77.15%.

B3: G000488: TTR sgRNA modified sequence, Human, SEQ ID No. 95; guide sequence of CR003346 (nucleic acid)
guide: mA*mA*mA*rGrUrUrCrUrArGrArUrGrCrUrGrUrCrCrGrGrUrUrUrUrArGrAmGmCmUmAmGmAmAmAmUmAmGmCrArArGrUrUrArArArArUrArArGrGrCrUrArGrUrCrCrGrUrUrArUrCrAmAmCmUmUmGmAmAmAmAmAmGmUmGmGmCmAmCmCmGmAmGmUmCmGmGmUmGmCmU*mU*mU*mU
Turning to B3, in the data set with TTR mRNA (setting [1]), the “Avg % Knockdown” value worked out at 92.77%. Besides, in the data set on TTR, the “Avg % Deletion” value was 35.00%, the “Avg % Edit” value amounted to 61.27% and the “Avg % Insert” value is 26.30%.

B4: G000572: TTR sgRNA modified sequence, Human, SEQ ID No. 113; guide sequence of CR003385 (nucleic acid)
guide: mC*mC*mC*rCrUrArCrUrCrCrUrArUrUrCrCrArCrCrArGrUrUrUrUrArGrAmGmCmUmAmGmAmAmAmUmAmGmCrArArGrUrUrArArArArUrArArGrGrCrUrArGrUrCrCrGrUrUrArUrCrAmAmCmUmUmGmAmAmAmAmAmGmUmGmGmCmAmCmCmGmAmGmUmCmGmGmUmGmCmU*mU*mU*mU
With B4, in the data set on TTR mRNA (setting [1]), the “Avg % Knockdown” value was 55.92%.

B5: G000571: TTR sgRNA modified sequence, Human, SEQ ID No. 112; guide sequence of CR005301 (nucleic acid)
guide: mG*mU*mC*rArCrArGrArArArCrArCrUrCrArCrCrGrUrGrUrUrUrUrArGrAmGmCmUmAmGmAmAmAmUmAmGmCrArArGrUrUrArArArArUrArArGrGrCrUrArGrUrCrCrGrUrUrArUrCrAmAmCmUmUmGmAmAmAmAmAmGmUmGmGmCmAmCmCmGmAmGmUmCmGmGmUmGmCmU*mU*mU*mU
Take B5: the “Avg % Knockdown” value in the data set with TTR mRNA (setting [1]) turned out to be 96.17%.

B6: G000568: TTR sgRNA modified sequence, Human, SEQ ID No. 110; guide sequence of CR003391 (nucleic acid)
guide: mG*mG*mC*rUrGrUrCrGrUrCrArCrCrArArUrCrCrCrArGrUrUrUrUrArGrAmGmCmUmAmGmAmAmAmUmAmGmCrArArGrUrUrArArArArUrArArGrGrCrUrArGrUrCrCrGrUrUrArUrCrAmAmCmUmUmGmAmAmAmAmAmGmUmGmGmCmAmCmCmGmAmGmUmCmGmGmUmGmCmU*mU*mU*mU
In the case of B6, the “Avg % Knockdown” value with TTR mRNA (setting [1]) is given as 53.44%.

B7: G000499: TTR sgRNA modified sequence, Human, SEQ ID No. 106; guide sequence of CR005303 (nucleic acid)
guide: mU*mG*mA*rArUrCrCrArArGrUrGrUrCrCrUrCrUrGrArGrUrUrUrUrArGrAmGmCmUmAmGmAmAmAmUmAmGmCrArArGrUrUrArArArArUrArArGrGrCrUrArGrUrCrCrGrUrUrArUrCrAmAmCmUmUmGmAmAmAmAmAmGmUmGmGmCmAmCmCmGmAmGmUmCmGmGmUmGmCmU*mU*mU*mU
For the molecule B7, the “Avg % Knockdown” value with TTR mRNA (setting [1]) is on record as 91.38%. In the data set with TTR, the “Avg % Deletion” value is reported as 1.17%, the “Avg % Edit” value worked out at 66.40% and the “Avg % Insert” value was 65.23%.

B8: G000494: TTR sgRNA modified sequence, Human, SEQ ID No. 101; guide sequence of CR003360 (nucleic acid)
guide: mG*mU*mG*rArGrUrCrUrGrGrArGrArGrCrUrGrCrArUrGrUrUrUrUrArGrAmGmCmUmAmGmAmAmAmUmAmGmCrArArGrUrUrArArArArUrArArGrGrCrUrArGrUrCrCrGrUrUrArUrCrAmAmCmUmUmGmAmAmAmAmAmGmUmGmGmCmAmCmCmGmAmGmUmCmGmGmUmGmCmU*mU*mU*mU
As to B8, in the data set on TTR mRNA (setting [1]), the “Avg % Knockdown” value is 91.15%. In the data set on TTR, the “Avg % Deletion” value was 0.77%, the “Avg % Edit” value was found to be 62.23% and the “Avg % Insert” value is on record as 61.47%.

B9: G000489: TTR sgRNA modified sequence, Human, SEQ ID No. 96; guide sequence of CR003344 (nucleic acid)
guide: mU*mU*mU*rGrArCrCrArUrCrArGrArGrGrArCrArCrUrGrUrUrUrUrArGrAmGmCmUmAmGmAmAmAmUmAmGmCrArArGrUrUrArArArArUrArArGrGrCrUrArGrUrCrCrGrUrUrArUrCrAmAmCmUmUmGmAmAmAmAmAmGmUmGmGmCmAmCmCmGmAmGmUmCmGmGmUmGmCmU*mU*mU*mU
Turning to B9, in the data set on TTR mRNA (setting [1]), the “Avg % Knockdown” value was 91.85%. Also, in the data set on TTR, the “Avg % Deletion” value was 9.43%, the “Avg % Edit” value is 60.17% and the “Avg % Insert” value stood at 51.07%.

B10: G000567: TTR sgRNA modified sequence, Human, SEQ ID No. 109; guide sequence of CR003352 (nucleic acid)
guide: mG*mA*mA*rArGrGrCrUrGrCrUrGrArUrGrArCrArCrCrGrUrUrUrUrArGrAmGmCmUmAmGmAmAmAmUmAmGmCrArArGrUrUrArArArArUrArArGrGrCrUrArGrUrCrCrGrUrUrArUrCrAmAmCmUmUmGmAmAmAmAmAmGmUmGmGmCmAmCmCmGmAmGmUmCmGmGmUmGmCmU*mU*mU*mU
On to B10, for which, in the data set with TTR mRNA (setting [1]), the “Avg % Knockdown” value is 90.89%.
